# Measurements reported in US20160120951A1 (ZEALAND PHARMA A S, published 2016).
# Numbered stars: 1 amine (or outer) side, 2 acyl side, 3 side chain; on linkers, the order of the positions; unused ones are H or OH. Bridge positions count the residues as written; N and C are the ends. Square brackets hold non-standard residues; d marks the D form. Side chains are listed from the residue outwards. Ends that are not written are not given here. * marks the point of attachment. γGlu = O=C(O)[C@H](CCC(=O)[*:2])N[*:1]; Palmitoyl = CCCCCCCCCCCCCCCC(=O)*; Aib = CC(C)(N)C(=O)O
# How the values were obtained:
# Test in all cases: cell-based or functional assay
# [1] = molecular target: human glucagon-like peptide 1 receptor (GLP-1R) (human, UniProt P43220 24-463)
# Chain of human glucagon-like peptide 1 receptor (GLP-1R) (P43220 24-463): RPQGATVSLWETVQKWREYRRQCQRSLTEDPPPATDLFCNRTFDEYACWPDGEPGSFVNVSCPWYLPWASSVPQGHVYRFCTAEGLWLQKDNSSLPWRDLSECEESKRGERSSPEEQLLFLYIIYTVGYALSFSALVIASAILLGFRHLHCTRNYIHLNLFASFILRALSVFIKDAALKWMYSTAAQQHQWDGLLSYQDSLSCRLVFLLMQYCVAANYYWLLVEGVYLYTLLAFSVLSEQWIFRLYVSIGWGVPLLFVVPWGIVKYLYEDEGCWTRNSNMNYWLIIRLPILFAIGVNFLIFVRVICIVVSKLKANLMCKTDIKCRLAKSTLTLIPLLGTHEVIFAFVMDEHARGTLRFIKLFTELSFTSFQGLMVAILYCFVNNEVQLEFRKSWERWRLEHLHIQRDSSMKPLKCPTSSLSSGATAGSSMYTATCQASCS
# [2] = molecular target: T1, human glucagon receptor (Glucagon-R) (human, UniProt P47871 26-477)
# [3] = molecular target: T1, human glucagon receptor (Glucagon-R); remark: listed apart in the source
Binder,"EC50 (nM) GLP-1R, cAMP formation [1]","EC50 (nM) GluR, cAMP formation [2]","GluR EC50 (nM) (1), cAMP formation in primary human hepatocytes [3]","GluR EC50 (nM) (2), cAMP formation in primary human hepatocytes [3]","GluR EC50 (nM) (log avg), cAMP formation in primary human hepatocytes [3]"
HXQGTFTSDYSKYLDSKAAHDFVEWLLSA (Aib at position 2; K(Dodecanoyl-γ-Glu) at position 17; C-terminal amide (NH2)) [Compound 14],0.14 nM,0.78 nM,–,–,–
HXQGTFTSDYSKYLDSKAAHDFVEWLLSA (Aib at position 2; K(Hexadecanoyl-[8-Aminooctanoyl]) at position 17; C-terminal amide (NH2)) [Compound 16],0.24 nM,0.46 nM,–,–,–
H-H[Aib]QGTFTSDYSKYLDSKAAK([γGlu-Palmitoyl])DFVAWLLRA-NH2 (SMILES CCCCCCCCCCCCCCCC(=O)N[C@@H](CCC(=O)NCCCC[C@H](NC(=O)[C@H](C)NC(=O)[C@H](C)NC(=O)[C@H](CCCCN)NC(=O)[C@H](CO)NC(=O)[C@H](CC(=O)O)NC(=O)[C@H](CC(C)C)NC(=O)[C@H](Cc1ccc(O)cc1)NC(=O)[C@H](CCCCN)NC(=O)[C@H](CO)NC(=O)[C@H](Cc1ccc(O)cc1)NC(=O)[C@H](CC(=O)O)NC(=O)[C@H](CO)NC(=O)[C@@H](NC(=O)[C@H](Cc1ccccc1)NC(=O)[C@@H](NC(=O)CNC(=O)[C@H](CCC(N)=O)NC(=O)C(C)(C)NC(=O)[C@@H](N)Cc1c[nH]cn1)[C@@H](C)O)[C@@H](C)O)C(=O)N[C@@H](CC(=O)O)C(=O)N[C@@H](Cc1ccccc1)C(=O)N[C@H](C(=O)N[C@@H](C)C(=O)N[C@@H](Cc1c[nH]c2ccccc12)C(=O)N[C@@H](CC(C)C)C(=O)N[C@@H](CC(C)C)C(=O)N[C@@H](CCCNC(=N)N)C(=O)N[C@@H](C)C(N)=O)C(C)C)C(=O)O) [Compound 10],0.15 nM,0.63 nM,–,–,–
H[Aib]QGTFTSDYSKYLDSK([γGlu-Palmitoyl])AAHDFVEWLLKA-NH2 (lactam 24-28; N-terminus assumed; SMILES CCCCCCCCCCCCCCCC(=O)N[C@@H](CCC(=O)NCCCC[C@H](NC(=O)[C@H](CO)NC(=O)[C@H](CC(=O)O)NC(=O)[C@H](CC(C)C)NC(=O)[C@H](Cc1ccc(O)cc1)NC(=O)[C@H](CCCCN)NC(=O)[C@H](CO)NC(=O)[C@H](Cc1ccc(O)cc1)NC(=O)[C@H](CC(=O)O)NC(=O)[C@H](CO)NC(=O)[C@@H](NC(=O)[C@H](Cc1ccccc1)NC(=O)[C@@H](NC(=O)CNC(=O)[C@H](CCC(N)=O)NC(=O)C(C)(C)NC(=O)[C@@H](N)Cc1c[nH]cn1)[C@@H](C)O)[C@@H](C)O)C(=O)N[C@@H](C)C(=O)N[C@@H](C)C(=O)N[C@@H](Cc1c[nH]cn1)C(=O)N[C@@H](CC(=O)O)C(=O)N[C@@H](Cc1ccccc1)C(=O)N[C@H](C(=O)N[C@H]1CCC(=O)NCCCC[C@@H](C(=O)N[C@@H](C)C(N)=O)NC(=O)[C@H](CC(C)C)NC(=O)[C@H](CC(C)C)NC(=O)[C@H](Cc2c[nH]c3ccccc23)NC1=O)C(C)C)C(=O)O) [Compound 13],0.08 nM,0.26 nM,–,–,–
H-H[Aib]QGTFTSDYSKYLDSKAAHDFVEWLLK([γGlu-Palmitoyl])A-NH2 (SMILES CCCCCCCCCCCCCCCC(=O)N[C@@H](CCC(=O)NCCCC[C@H](NC(=O)[C@H](CC(C)C)NC(=O)[C@H](CC(C)C)NC(=O)[C@H](Cc1c[nH]c2ccccc12)NC(=O)[C@H](CCC(=O)O)NC(=O)[C@@H](NC(=O)[C@H](Cc1ccccc1)NC(=O)[C@H](CC(=O)O)NC(=O)[C@H](Cc1c[nH]cn1)NC(=O)[C@H](C)NC(=O)[C@H](C)NC(=O)[C@H](CCCCN)NC(=O)[C@H](CO)NC(=O)[C@H](CC(=O)O)NC(=O)[C@H](CC(C)C)NC(=O)[C@H](Cc1ccc(O)cc1)NC(=O)[C@H](CCCCN)NC(=O)[C@H](CO)NC(=O)[C@H](Cc1ccc(O)cc1)NC(=O)[C@H](CC(=O)O)NC(=O)[C@H](CO)NC(=O)[C@@H](NC(=O)[C@H](Cc1ccccc1)NC(=O)[C@@H](NC(=O)CNC(=O)[C@H](CCC(N)=O)NC(=O)C(C)(C)NC(=O)[C@@H](N)Cc1c[nH]cn1)[C@@H](C)O)[C@@H](C)O)C(C)C)C(=O)N[C@@H](C)C(N)=O)C(=O)O) [Compound 12],0.27 nM,0.27 nM,–,–,–
H-HSQGTFTSDYSKYLDSKAAK([γGlu-Palmitoyl])DFVEWLLRA-NH2 (SMILES CCCCCCCCCCCCCCCC(=O)N[C@@H](CCC(=O)NCCCC[C@H](NC(=O)[C@H](C)NC(=O)[C@H](C)NC(=O)[C@H](CCCCN)NC(=O)[C@H](CO)NC(=O)[C@H](CC(=O)O)NC(=O)[C@H](CC(C)C)NC(=O)[C@H](Cc1ccc(O)cc1)NC(=O)[C@H](CCCCN)NC(=O)[C@H](CO)NC(=O)[C@H](Cc1ccc(O)cc1)NC(=O)[C@H](CC(=O)O)NC(=O)[C@H](CO)NC(=O)[C@@H](NC(=O)[C@H](Cc1ccccc1)NC(=O)[C@@H](NC(=O)CNC(=O)[C@H](CCC(N)=O)NC(=O)[C@H](CO)NC(=O)[C@@H](N)Cc1c[nH]cn1)[C@@H](C)O)[C@@H](C)O)C(=O)N[C@@H](CC(=O)O)C(=O)N[C@@H](Cc1ccccc1)C(=O)N[C@H](C(=O)N[C@@H](CCC(=O)O)C(=O)N[C@@H](Cc1c[nH]c2ccccc12)C(=O)N[C@@H](CC(C)C)C(=O)N[C@@H](CC(C)C)C(=O)N[C@@H](CCCNC(=N)N)C(=O)N[C@@H](C)C(N)=O)C(C)C)C(=O)O) [Compound 4],0.1 nM,0.04 nM,–,–,–
HSQGTFTSDYSKYLDK([γGlu-Palmitoyl])KAAHDFVEWLLRA-NH2 (N-terminus assumed; SMILES CCCCCCCCCCCCCCCC(=O)N[C@@H](CCC(=O)NCCCC[C@H](NC(=O)[C@H](CC(=O)O)NC(=O)[C@H](CC(C)C)NC(=O)[C@H](Cc1ccc(O)cc1)NC(=O)[C@H](CCCCN)NC(=O)[C@H](CO)NC(=O)[C@H](Cc1ccc(O)cc1)NC(=O)[C@H](CC(=O)O)NC(=O)[C@H](CO)NC(=O)[C@@H](NC(=O)[C@H](Cc1ccccc1)NC(=O)[C@@H](NC(=O)CNC(=O)[C@H](CCC(N)=O)NC(=O)[C@H](CO)NC(=O)[C@@H](N)Cc1c[nH]cn1)[C@@H](C)O)[C@@H](C)O)C(=O)N[C@@H](CCCCN)C(=O)N[C@@H](C)C(=O)N[C@@H](C)C(=O)N[C@@H](Cc1c[nH]cn1)C(=O)N[C@@H](CC(=O)O)C(=O)N[C@@H](Cc1ccccc1)C(=O)N[C@H](C(=O)N[C@@H](CCC(=O)O)C(=O)N[C@@H](Cc1c[nH]c2ccccc12)C(=O)N[C@@H](CC(C)C)C(=O)N[C@@H](CC(C)C)C(=O)N[C@@H](CCCNC(=N)N)C(=O)N[C@@H](C)C(N)=O)C(C)C)C(=O)O) [Compound 2],0.2 nM,0.13 nM,–,–,–
H-HSQGTFTSDYSKYLDSKAAHDFVEWLLRA-NH2 [Compound 1],0.06 nM,0.06 nM,1.4 nM,2.2 nM,1.8 nM
H-HSQGTFTSDYSKYLDSK([γGlu-Palmitoyl])AAHDFVEWLLRA-NH2 (SMILES CCCCCCCCCCCCCCCC(=O)N[C@@H](CCC(=O)NCCCC[C@H](NC(=O)[C@H](CO)NC(=O)[C@H](CC(=O)O)NC(=O)[C@H](CC(C)C)NC(=O)[C@H](Cc1ccc(O)cc1)NC(=O)[C@H](CCCCN)NC(=O)[C@H](CO)NC(=O)[C@H](Cc1ccc(O)cc1)NC(=O)[C@H](CC(=O)O)NC(=O)[C@H](CO)NC(=O)[C@@H](NC(=O)[C@H](Cc1ccccc1)NC(=O)[C@@H](NC(=O)CNC(=O)[C@H](CCC(N)=O)NC(=O)[C@H](CO)NC(=O)[C@@H](N)Cc1c[nH]cn1)[C@@H](C)O)[C@@H](C)O)C(=O)N[C@@H](C)C(=O)N[C@@H](C)C(=O)N[C@@H](Cc1c[nH]cn1)C(=O)N[C@@H](CC(=O)O)C(=O)N[C@@H](Cc1ccccc1)C(=O)N[C@H](C(=O)N[C@@H](CCC(=O)O)C(=O)N[C@@H](Cc1c[nH]c2ccccc12)C(=O)N[C@@H](CC(C)C)C(=O)N[C@@H](CC(C)C)C(=O)N[C@@H](CCCNC(=N)N)C(=O)N[C@@H](C)C(N)=O)C(C)C)C(=O)O) [Compound 3],0.11 nM,0.12 nM,–,–,–
H-H[Aib]QGTFTSDYSKYLDSK([γGlu-Palmitoyl])AARDFVAWLLRA-NH2 (SMILES CCCCCCCCCCCCCCCC(=O)N[C@@H](CCC(=O)NCCCC[C@H](NC(=O)[C@H](CO)NC(=O)[C@H](CC(=O)O)NC(=O)[C@H](CC(C)C)NC(=O)[C@H](Cc1ccc(O)cc1)NC(=O)[C@H](CCCCN)NC(=O)[C@H](CO)NC(=O)[C@H](Cc1ccc(O)cc1)NC(=O)[C@H](CC(=O)O)NC(=O)[C@H](CO)NC(=O)[C@@H](NC(=O)[C@H](Cc1ccccc1)NC(=O)[C@@H](NC(=O)CNC(=O)[C@H](CCC(N)=O)NC(=O)C(C)(C)NC(=O)[C@@H](N)Cc1c[nH]cn1)[C@@H](C)O)[C@@H](C)O)C(=O)N[C@@H](C)C(=O)N[C@@H](C)C(=O)N[C@@H](CCCNC(=N)N)C(=O)N[C@@H](CC(=O)O)C(=O)N[C@@H](Cc1ccccc1)C(=O)N[C@H](C(=O)N[C@@H](C)C(=O)N[C@@H](Cc1c[nH]c2ccccc12)C(=O)N[C@@H](CC(C)C)C(=O)N[C@@H](CC(C)C)C(=O)N[C@@H](CCCNC(=N)N)C(=O)N[C@@H](C)C(N)=O)C(C)C)C(=O)O) [Compound 9],0.12 nM,0.17 nM,–,–,–
HXQGTFTSDYSKYLDSKAAHDFVEWLLSA (Aib at position 2; K(Hexadecanoyl-ε-Lys) at position 17; C-terminal amide (NH2)) [Compound 17],0.09 nM,0.39 nM,–,–,–
HXQGTFTSDYSKYLDSKAAHDFVEWLLSA (Aib at position 2; K(Hexadecanoyl-[3-Aminopropanoyl]) at position 17; C-terminal amide (NH2)) [Compound 15],0.23 nM,1.87 nM,–,–,–
